Assay results taken from PMC8395316 (2021).

Biological target: Spike-RBD RBD (Severe acute respiratory syndrome …, UniProt P0DTC2)
Experiment: ELISA

B1: Platelet Factor 4 (protein)
chain: SQVRPRHITSLEVIKAGPHCPTAQLIATLKNGRKICLDLQAPLYKKIIKKLLES
  Kd: ~0.18 µM
